The values that follow come from article doi:10.1101/495473v2.

Assay in all cases: purified protein
What all share (conditions): 5 mM MgCl2, 200 mM Tricine-NaOH pH 7.4, 37 °C

Substrate in series [1]: C[C@H](OP(=O)(O)O)C(=O)O
Substrate in series [2]: O=P(O)(O)OC(CO)CO
Substrate in series [3]: O=C(O)COP(=O)(O)O

B1: PbPGP (Plasmodium berghei ANKA) (protein)
chain: MSLIVSEASQNNYFKDSENSYNSFMKEWKIEKRVNVKDLYQNFEVFFFDCDGVLWRGDTVINGAIEVINKLISDNKKVYFITNNSTKSRDTLLGKFHKLGFTCVKKEHIICTSYAIAKYFHSKEEYKSRKKKIYVIGEKGICDELDALNLVWLGSYKDNDKKVIIQDEGEIQIDNNIGAVVVAIDFNINYYKIQYAQLCINGLDAEFIVSNKDPLANFTSNQQWAGTGSIVASIEQVSFKKPKVLGKPNLFMIESVLKSLNIDLSKVVMIGDRLDTDIFFAQNCKIKSILVSTGVTDANVFLNHNNLNIKPDYFMKSILEFL
Consider B1, for which the figures for the Km in “purified protein [1]”, in the series “purified protein [2]” and in the series “purified protein [3]” were 4773 ± 574 µM, 2110 ± 11 µM and 2526 ± 494 µM, respectively. Moreover, the results for the kcat in the series “purified protein [1]”, in “purified protein [2]” and in the series “purified protein [3]” were 67.34 ± 8.31 s⁻¹, 10.18 ± 0.08 s⁻¹ and 75.15 ± 7.86 s⁻¹, respectively.

What is called Km is the concentration of substrate that gives half-maximal velocity. In general, kcat refers to the number of substrate molecules converted per active site and unit of time at saturation.
